Reference: patent US20250090677A1, “ANTI-CDH6 ANTIBODIES AND ANTIBODY-DRUG CONJUGATES THEREOF” (MULTITUDE THERAPEUTICS INC., priority 2021, published 2025)

Tests used:
[1] = Aggregation of antibody-drug conjugate by SEC-HPLC (common procedure G); type: physicochemical
Text: The aggregation in the antibody-drug conjugate can be determined by size exclusion chromatography (SEC) in high-performance liquid chromatography (HPLC) analysis using the following method. • HPLC system: Agilent 1260 Infinity II HPLC system (Agilent Technologies, Inc.) • Detector: Ultraviolet absorption spectrometer (measurement wavelength: 280 nm) • SEC-Column: TOSOH TSKgel G3000SWXL (7.8×300 mm, 5 μm) • Mobile phase: 200 mmol/L KHPO4, 150 mmol/L NaCl, 15% (v/v) isopropanol, pH7.0 • Flow rate: 0.75 mL/min • Isocratic Operation: 18 min • Column temperature: room temperature • Sample injection: 50 μg
The SEC chromatogram of quality control (QC, CL069707-H1L1) was shown in FIG. 5A, it is confirmed that the molecular weight of the main QC product is about 150 kDa and the monomer retention time is around 9.5-10.5 min. Meanwhile, the retention time of aggregation is earlier than that of monomer.

[2] = Hydrophilicity of antibody-drug conjugate by HIC-HPLC (common procedure H); type: physicochemical; conditions: shorter retention time = better hydrophilicity
Text: The Hydrophilicity of the antibody-drug conjugate can be determined by hydrophobic interaction chromatography (HIC) in high-performance liquid chromatography (HPLC) analysis using the following method. • HPLC system: Agilent 1260 Infinity II HPLC system (Agilent Technologies, Inc.) • Detector: Ultraviolet absorption spectrometer (measurement wavelength: 280 nm) • HIC-Column: TOSOH TSKgel Butyl-NPR (4.6 mm I.D.×3.5 cm, 2.5 μm) • Mobile phase A: 1.5 mol/L (NH4)2SO4, 50 mmol/L KHPO4, pH7.0 • Mobile phase B: 50 mmol/L KHPO4, 25% (v/v) isopropanol, pH7.0 • Isocratic Operation: 25 min • Column temperature: room temperature • Gradient program (B %): 0%-25% (0 min-1 min), 25% (1 min-3 min), 25%-80% (3 min-13 min), 80% (13 min-17 min), 80%-0% (17 min-17.10 min), 0% (17.10 min-25 min) • Sample injection: 10 μL
It is confirmed that the shorter the retention time, the better of the sample's hydrophilicity

[3] = tested on: Renal Carcinoma Patient-Derived Xenograft (PDX); assay: In vivo antitumor effect in renal carcinoma patient-derived xenograft (PDX) model; design: species or system mice; conditions: 10 mg/kg intravenous, compared with IgG-LP1 or IgG-GGFG-DXd, FIG. 21A
Method: 6-8 weeks Nu/Nu mice were purchased from Zhejiang Charles River Co., Ltd. The tumors were sliced into 3 mm×3 mm×3 mm (about 50-90 mg) fragments and implanted subcutaneously into the right flank of mice. Then the animals were checked daily for tumor growth and body weight. The mice were randomized into 5 groups when mean tumor volume reaches ˜150 mm^3. The grouping day was regarded as day 0. Mice were then injected intravenous with 10 mg/kg of one of the following substances:10 mg/kg IgG-LP1, CL069707-H1L1-LP1, IgG-GGFG-DXd, Reference ADC and Reference Antibody-LP1. Tumor volumes were measured two times per week from day of treatment initiation by Caliper and calculated as follows: […].

recombinant protein CDH6 = biological target: T1, recombinant protein CDH6 (Homo sapiens, UniProt P55285); assay: ELISA binding activity of mouse monoclonal antibodies to CDH6 recombinant protein; conditions: CDH6 coated 1 μg/mL, FIG. 23
T1 construct: CDH6 extracellular region (Ser 54-Ala 615) was used as an immunogen; purchased ACRO Biosystems CA6-H5229
T1 sequence (P55285 54-615): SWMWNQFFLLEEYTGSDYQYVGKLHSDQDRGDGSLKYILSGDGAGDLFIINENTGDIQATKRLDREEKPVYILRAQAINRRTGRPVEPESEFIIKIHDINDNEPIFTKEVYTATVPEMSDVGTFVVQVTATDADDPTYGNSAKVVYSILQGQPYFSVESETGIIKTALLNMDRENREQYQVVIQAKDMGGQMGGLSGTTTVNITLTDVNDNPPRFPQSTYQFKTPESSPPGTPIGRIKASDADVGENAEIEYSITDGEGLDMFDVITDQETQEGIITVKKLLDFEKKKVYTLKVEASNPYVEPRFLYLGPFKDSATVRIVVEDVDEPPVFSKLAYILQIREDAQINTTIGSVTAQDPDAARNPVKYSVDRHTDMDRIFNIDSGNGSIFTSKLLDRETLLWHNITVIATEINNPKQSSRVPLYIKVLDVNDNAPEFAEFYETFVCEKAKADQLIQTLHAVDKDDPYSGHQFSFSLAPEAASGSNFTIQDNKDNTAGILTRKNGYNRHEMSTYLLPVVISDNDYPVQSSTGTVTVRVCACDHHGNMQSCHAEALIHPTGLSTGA
Method: The recombinant protein CDH6 was coated on ELISA plates at 1 μg/mL overnight at 4° C.; after being washed with PBST, the plate was added with 10% fetal bovine serum, and the mixture was blocked at 37° C. for 1 h; the plate was added with 13 monoclonal antibodies of CDH6 with different dilutions (0.1 ng/mL to 100 ng/mL), and the mixture was reacted at 37° C. for 1 h; after being washed with PBST, the plate was added with horseradish peroxidase-labeled goat anti-human IgG secondary antibody (Goat anti Mouse (HRP), Thermo Fisher Scientific), and the mixture was reacted at 37° C. for 30 min; after the plate was repeatedly washed with PBST 5 times, the remaining droplets on the absorbent paper were patted as much as possible; each well of the plate was added with 100 μL of TMB (eBioscience) and placed in the dark at room temperature (20±5° C.) for 1.5 min; each well of the plate was added with 100 μL of 2 N H2SO4 stop buffer for stopping substrate reaction, OD values at 450 nm were read using a microplate reader, and the binding ability of the antibody to the target antigen CDH6 was analyzed. As shown in Table 1 and FIG. 23, the sensitivity of the anti-CDH6 antibody and CDH6 recombinant protein of the present application was not more than 12.5 ng/mL, wherein #13 (CL069463 antibody) was not more than 3.125 ng/mL, #23 (CL069707 antibody) was not more than 1.56 ng/mL, #4 (CL069066 antibody) was not more than 6.3 ng/mL, and #16 (CL069439 antibody) was not more than 1.0 ng/mL.

[4] = tested on: HepG2 cells (human hepatoma cells); assay: Flow cytometry, HepG2 negative cells; type: binding; conditions: antibody diluted to 20 μg/mL, FCM
Method: (§1) The binding of 13 CDH6 monoclonal antibodies to CDH6 on the cell surface was analyzed by Flow cytometry (FCM) using OVCAR-3 cells (human ovarian cancer cells) as positive cells and HepG2 cells (human hepatoma cells) as negative cells. Cells in the logarithmic growth phase were collected, adjusted to a cell density of 5×10^6 cells/mL, and pre-cooled on ice. 13 CDH6 monoclonal antibodies were diluted to 20 μg/mL in 2% FBS-containing pre-cooled saline. 100 μL of cells were taken and added with an equal volume of the diluted CDH6 monoclonal antibodies described above, and the mixture was reacted at 4° C. for 30 min in the dark. After the reaction was completed, the cells were washed twice with […] pre-cooled saline (6000 rpm, 45 s). The secondary antibody PE anti-mouse IgG (BD Pharmingen) was diluted at 1:500 with 2% FBS-containing pre-cooled saline, and each of the washed cells were resuspended with 100 μL of diluted secondary antibody and reacted for 30 min at 4° C. in the dark. After the reaction was completed, the cells were washed twice with 2% FBS-containing pre-cooled saline (6000 rpm, 45 s). The cells were resuspended in 400 μL of saline. The flow cytometer (BD Calibur) was used to analyze the binding ability of antibodies to cell surface antigens.

[5] = tested on: OVCAR-3 cells (human ovarian cancer cells); assay: Flow cytometry recognition of cell-surface CDH6, OVCAR-3 positive cells; type: binding; conditions: antibody diluted to 20 μg/mL, FCM, FIG. 24
Method: as §1

Molecule	aggregation of the antibody-drug conjugate measured by common procedure G [1] [%]	retention time of the antibody-drug conjugate measured by common procedure H [2] [min]	tumor volume / tumor growth inhibition [3]	sensitivity of the anti-CDH6 antibody and CDH6 recombinant protein (ELISA) (recombinant protein CDH6)	binding to negative cells HepG2 [4]	specific recognition of OVCAR-3 cells (positive cells) [5]
DS-6000a (conjugate, chains of the INN, looked up, deruxtecan payload) VH: EVQLVQSGAEVKKPGASVKVSCKASGYTFTRNFMHWVRQAPGQGLEWMGWIYPGDGETEYAQKFQGRVTITADTSTSTAYMELSSLRSEDTAVYYCARGVYGGFAGGYFDFWGQGTLVTVSS VL: DIQMTQSPSSLSASVGDRVTITCKASQNIYKNLAWYQQKPGKAPKLLIYDANTLQTGVPSRFSGSGSGSDFTLTISSLQPEDFATYFCQQYYSGWAFGQGTKVEIK	2.68	7.672	no tumor growth inhibition activity			
CL069066: mouse anti-CDH6 monoclonal antibody; VH SEQ ID NO: 95, VL SEQ ID NO: 96 (antibody, V domains shown, CL069066 VH; Ch069066 VH; CL069066 VL; Ch069066 VL) VH: EVKLLESGGGLVQPGGSLKLSCAASGFDFSRYWMTWVRQAPGKGLEWIGEINPDSSTINYTPSLKDKFIISRDNAKNTLYLQMNKVTSEDTALYYCTRRPHYYGYFDSWGQGTTLTVSS VL: DIVLTQSPASLAVSLGQRATISCRASESVEYYGTTLMQWYQQKPGQPPQLLIYAGSNVESGVPARFSGSGSGTEFSLNIHPVEEDDIGMYFCQQSRKVPWTFGGGTKLEIK				not more than 6.3 ng/mL		
CL069439: mouse anti-CDH6 monoclonal antibody; VH SEQ ID NO: 103, VL SEQ ID NO: 104 (antibody, V domains shown, CL069439 VH; Ch069439 VH; CL069439 VL; Ch069439 VL) VH: EVQLQQSGTELVRTGASVKISCKASGYSFTGYYIHWIKQSHGESLEWIGYISCFNGDTSYNQNFKDRATFNVDTSSSTAYMQFISLTSEDSAVYYCVRGRYGNFNYFDYWGQGTTLTVSS VL: DIVLTQSPASLAVSLGQRATISCRASESVEFYGTSLMQWFQQKPGHPPQLLIYATSNVDSGVPARFSASGSGTDFSLNIHPVEEADIAMYFCQQSRRIPWTFGGGTKLEIK				not more than 1.0 ng/mL		
CL069707: mouse anti-CDH6 monoclonal antibody; VH SEQ ID NO: 18, VL SEQ ID NO: 23 (antibody, V domains shown, CL069707 VH; Ch069707 VH; CL069707 VL; Ch069707 VL) VH: EVHLVESGGGLVQPKGSLKLSCVASGFTFTTYAMNWVRQAPGKGLEWVARIRIKNNNYATYYADSVTDRFTISRDDSQSMLYLQMNNLKTEDTAMYYCVRPDYGNYGLAYWGQGTLVTVSA VL: EIVLTQSPTTMAASPGEKITITCSASSSISSHYLHWYQQKPGFSPKLLIYRSFYLASGVPLRFTGSGSGTSYSLTIGTMEAEDVATYYCQQDIVPLTFGAGTKLELK				not more than 1.56 ng/mL	no binding was observed	capable of specifically recognizing
CL069463: mouse anti-CDH6 monoclonal antibody; VH SEQ ID NO: 41, VL SEQ ID NO: 46 (antibody, V domains shown, CL069463 VH; Ch069463 VH; CL069463 VL; Ch069463 VL) VH: EVQLVESGGGLVQPKGSLKLSCAASGFTFNTYALTWVRQAPGKGLEWVGRIKSKNKDYETYYADSVKDRFTISRNDSQSLLYLQMNNLKTEDTAIYYCVRQNWNYFDYWGQGTTLTVSS VL: DIQMTQSPASLAASVGETVTITCRASENIYYSLAWYQQRQGKSPQLLIYNANSLKDGVPSRFSGSGSGTQYSMKINSMQPEDTATYFCQQAYDVPPTFGGGTKLEIK				not more than 3.125 ng/mL	no binding was observed	capable of specifically recognizing
